Assay results taken from PMC3409459, “Absorption, distribution, metabolism and excretion of peginesatide, a novel erythropoiesis-stimulating agent, in rats” (Xenobiotica; the Fate of Foreign Compounds in Biological …, 2011).

Test: Tissue distribution of radioactivity by LSC following combustion, albino rats
Type: in vivo, male Sprague-Dawley (albino) rats
Details: mean ± SD, n=3
Procedure: Total captured radioactivity was subsequently measured via LSC.
Male Sprague-Dawley (albino) rats (n = 21; three per time point) were administered a single IV dose of 5 mg·kg^−1 [^14C]-peginesatide (27.5 μCi/kg) and tissue concentrations of radioactivity determined at 0.25, 6, and 24 h, and 7,14,30 and 60 days following dosing. Similarly, male Long Evans (pigmented) rats (n = 21; three per time point) were administered a single IV dose of 5 mg-kg^−1 [^14C]-peginesatide and plasma, skin, and eye concentrations of radioactivity were measured at the various time points through 60 days after dosing. At each time point, blood was collected, the animals sacrificed, and tissues excised. Tissues collected from the Sprague-Dawley rats included blood, plasma, adrenals, bone marrow, brain, eyes, fat, femur, Harderian glands, heart, hypophysis, intestine, kidneys, lungs, liver, pancreas, skeletal muscle, skin, spinal cord, spleen, stomach, submaxillary glands, testes, thymus, thyroid gland, and urinary bladder. Plasma, eyes, non-pigmented skin, and pigmented skin were collected from Long Evans rats. All tissue samples were measured for radioactivity by LSC following combustion. The liver and intestine were first homogenized in distilled water (20% w/v) prior to analysis. The concentration of radioactivity in the blood, plasma, and tissues was calculated and expressed as ug equiv·g^-1 or mLbased on the LSC counts and the specific activity of the dosing solution.

[1] = 7 Days after single IV 5 mg·kg^−1, LSC
[2] = 14 Days after single IV 5 mg·kg^−1, LSC
[3] = 30 Days after single IV 5 mg·kg^−1, LSC
[4] = 60 Days after single IV 5 mg·kg^−1, LSC

Peginesatide
Concentration of the radioactivity, Adrenals [1]: 10.2 ± 1.31 μg equiv·g^−1 or mL
Concentration of the radioactivity, Blood [1]: 3.87 ± 0.291 μg equiv·g^−1 or mL
Concentration of the radioactivity, Bone (femur) [1]: 0.788 ± 0.374 μg equiv·g^−1 or mL
Concentration of the radioactivity, Bone marrow [1]: 8.87 ± 0.641 μg equiv·g^−1 or mL
Concentration of the radioactivity, Brain [1]: 0.200 ± 0.021 μg equiv·g^−1 or mL
Concentration of the radioactivity, Eyes [1]: 0.885 ± 0.111 μg equiv·g^−1 or mL
Concentration of the radioactivity, Fat [1]: 2.11 ± 0.693 μg equiv·g^−1 or mL
Concentration of the radioactivity, Harderian glands [1]: 4.41 ± 0.100 μg equiv·g^−1 or mL
Concentration of the radioactivity, Heart [1]: 4.01 ± 0.344 μg equiv·g^−1 or mL
Concentration of the radioactivity, Intestine [1]: 3.05 ± 0.259 μg equiv·g^−1 or mL
Concentration of the radioactivity, Kidneys [1]: 5.68 ± 0.386 μg equiv·g^−1 or mL
Concentration of the radioactivity, Liver [1]: 12.5 ± 0.727 μg equiv·g^−1 or mL
Concentration of the radioactivity, Lungs [1]: 4.26 ± 0.285 μg equiv·g^−1 or mL
Concentration of the radioactivity, Pancreas [1]: 9.74 ± 0.231 μg equiv·g^−1 or mL
Concentration of the radioactivity, Pituitary [1]: 8.31 ± 0.594 μg equiv·g^−1 or mL
Concentration of the radioactivity, Plasma [1]: 7.80 ± 0.541 μg equiv·g^−1 or mL
Concentration of the radioactivity, Skeletal muscle [1]: 0.563 ± 0.119 μg equiv·g^−1 or mL
Concentration of the radioactivity, Skin [1]: 3.06 ± 0.055 μg equiv·g^−1 or mL
Concentration of the radioactivity, Spinal cord [1]: 0.129 ± 0.067 μg equiv·g^−1 or mL
Concentration of the radioactivity, Spleen [1]: 11.5 ± 0.204 μg equiv·g^−1 or mL
Concentration of the radioactivity, Stomach [1]: 2.36 ± 0.262 μg equiv·g^−1 or mL
Concentration of the radioactivity, Submandibular lymph nodes [1]: 10.6 ± 0.553 μg equiv·g^−1 or mL
Concentration of the radioactivity, Testes [1]: 4.98 ± 0.222 μg equiv·g^−1 or mL
Concentration of the radioactivity, Thymus [1]: 3.39 ± 0.560 μg equiv·g^−1 or mL
Concentration of the radioactivity, Thyroid gland [1]: 17.0 ± 5.26 μg equiv·g^−1 or mL
Concentration of the radioactivity, Urinary bladder [1]: 4.52 ± 1.01 μg equiv·g^−1 or mL
Concentration of the radioactivity, Adrenals [2]: 9.15 ± 2.39 μg equiv·g^−1 or mL
Concentration of the radioactivity, Blood [2]: 1.03 ± 0.229 μg equiv·g^−1 or mL
Concentration of the radioactivity, Bone (femur) [2]: 0.388 ± 0.054 μg equiv·g^−1 or mL
Concentration of the radioactivity, Bone marrow [2]: 6.33 ± 0.683 μg equiv·g^−1 or mL
Concentration of the radioactivity, Brain [2]: 0.102 ± 0.014 μg equiv·g^−1 or mL
Concentration of the radioactivity, Eyes [2]: 0.765 ± 0.022 μg equiv·g^−1 or mL
Concentration of the radioactivity, Fat [2]: 1.14 ± 0.475 μg equiv·g^−1 or mL
Concentration of the radioactivity, Harderian glands [2]: 5.21 ± 0.433 μg equiv·g^−1 or mL
Concentration of the radioactivity, Heart [2]: 2.73 ± 0.254 μg equiv·g^−1 or mL
Concentration of the radioactivity, Intestine [2]: 1.78 ± 0.297 μg equiv·g^−1 or mL
Concentration of the radioactivity, Kidneys [2]: 4.49 ± 1.02 μg equiv·g^−1 or mL
Concentration of the radioactivity, Liver [2]: 8.53 ± 0.754 μg equiv·g^−1 or mL
Concentration of the radioactivity, Lungs [2]: 3.38 ± 0.703 μg equiv·g^−1 or mL
Concentration of the radioactivity, Pancreas [2]: 9.10 ± 0.629 μg equiv·g^−1 or mL
Concentration of the radioactivity, Pituitary [2]: 6.25 ± 1.17 μg equiv·g^−1 or mL
Concentration of the radioactivity, Plasma [2]: 2.00 ± 0.605 μg equiv·g^−1 or mL
Concentration of the radioactivity, Skeletal muscle [2]: 0.379 ± 0.108 μg equiv·g^−1 or mL
Concentration of the radioactivity, Skin [2]: 1.70 ± 0.109 μg equiv·g^−1 or mL
Concentration of the radioactivity, Spinal cord [2]: 0.069 ± 0.030 μg equiv·g^−1 or mL
Concentration of the radioactivity, Spleen [2]: 23.6 ± 2.82 μg equiv·g^−1 or mL
Concentration of the radioactivity, Stomach [2]: 2.00 ± 0.118 μg equiv·g^−1 or mL
Concentration of the radioactivity, Submandibular lymph nodes [2]: 10.9 ± 1.32 μg equiv·g^−1 or mL
Concentration of the radioactivity, Testes [2]: 5.19 ± 0.448 μg equiv·g^−1 or mL
Concentration of the radioactivity, Thymus [2]: 1.81 ± 0.249 μg equiv·g^−1 or mL
Concentration of the radioactivity, Thyroid gland [2]: 13.2 ± 3.52 μg equiv·g^−1 or mL
Concentration of the radioactivity, Urinary bladder [2]: 2.30 ± 0.326 μg equiv·g^−1 or mL
Concentration of the radioactivity, Adrenals [3]: 7.90 ± 1.57 μg equiv·g^−1 or mL
Concentration of the radioactivity, Blood [3]: 0.466 ± 0.054 μg equiv·g^−1 or mL
Concentration of the radioactivity, Bone (femur) [3]: 0.278 ± 0.057 μg equiv·g^−1 or mL
Concentration of the radioactivity, Bone marrow [3]: 4.12 ± 1.37 μg equiv·g^−1 or mL
Concentration of the radioactivity, Brain [3]: 0.080 ± 0.010 μg equiv·g^−1 or mL
Concentration of the radioactivity, Eyes [3]: 0.511 ± 0.147 μg equiv·g^−1 or mL
Concentration of the radioactivity, Fat [3]: 0.582 ± 0.070 μg equiv·g^−1 or mL
Concentration of the radioactivity, Harderian glands [3]: 3.88 ± 0.907 μg equiv·g^−1 or mL
Concentration of the radioactivity, Heart [3]: 1.57 ± 0.244 μg equiv·g^−1 or mL
Concentration of the radioactivity, Intestine [3]: 1.40 ± 0.183 μg equiv·g^−1 or mL
Concentration of the radioactivity, Kidneys [3]: 3.03 ± 0.429 μg equiv·g^−1 or mL
Concentration of the radioactivity, Liver [3]: 3.45 ± 0.808 μg equiv·g^−1 or mL
Concentration of the radioactivity, Lungs [3]: 1.78 ± 0.237 μg equiv·g^−1 or mL
Concentration of the radioactivity, Pancreas [3]: 6.67 ± 1.70 μg equiv·g^−1 or mL
Concentration of the radioactivity, Pituitary [3]: 7.24 ± 0.292 μg equiv·g^−1 or mL
Concentration of the radioactivity, Plasma [3]: 0.780 ± 0.099 μg equiv·g^−1 or mL
Concentration of the radioactivity, Skeletal muscle [3]: 0.152 ± 0.012 μg equiv·g^−1 or mL
Concentration of the radioactivity, Skin [3]: 0.889 ± 0.228 μg equiv·g^−1 or mL
Concentration of the radioactivity, Spinal cord [3]: 0.033 ± 0.016 μg equiv·g^−1 or mL
Concentration of the radioactivity, Spleen [3]: 17.7 ± 4.96 μg equiv·g^−1 or mL
Concentration of the radioactivity, Stomach [3]: 1.28 ± 0.106 μg equiv·g^−1 or mL
Concentration of the radioactivity, Submandibular lymph nodes [3]: 7.86 ± 1.19 μg equiv·g^−1 or mL
Concentration of the radioactivity, Testes [3]: 4.33 ± 1.00 μg equiv·g^−1 or mL
Concentration of the radioactivity, Thymus [3]: 1.14 ± 0.138 μg equiv·g^−1 or mL
Concentration of the radioactivity, Thyroid gland [3]: 13.9 ± 3.33 μg equiv·g^−1 or mL
Concentration of the radioactivity, Urinary bladder [3]: 1.77 ± 0.889 μg equiv·g^−1 or mL
Concentration of the radioactivity, Adrenals [4]: 5.32 ± 0.996 μg equiv·g^−1 or mL
Concentration of the radioactivity, Blood [4]: 0.170 ± 0.036 μg equiv·g^−1 or mL
Concentration of the radioactivity, Bone (femur) [4]: 0.046 ± 0.001 μg equiv·g^−1 or mL
Concentration of the radioactivity, Bone marrow [4]: 0.361 ± 0.142 μg equiv·g^−1 or mL
Concentration of the radioactivity, Brain [4]: 0.057 ± 0.006 μg equiv·g^−1 or mL
Concentration of the radioactivity, Eyes [4]: 0.299 ± 0.076 μg equiv·g^−1 or mL
Concentration of the radioactivity, Fat [4]: 0.456 ± 0.135 μg equiv·g^−1 or mL
Concentration of the radioactivity, Harderian glands [4]: 2.75 ± 0.281 μg equiv·g^−1 or mL
Concentration of the radioactivity, Heart [4]: 1.14 ± 0.205 μg equiv·g^−1 or mL
Concentration of the radioactivity, Intestine [4]: 0.624 ± 0.033 μg equiv·g^−1 or mL
Concentration of the radioactivity, Kidneys [4]: 2.11 ± 0.574 μg equiv·g^−1 or mL
Concentration of the radioactivity, Liver [4]: 1.17 ± 0.199 μg equiv·g^−1 or mL
Concentration of the radioactivity, Lungs [4]: 1.05 ± 0.238 μg equiv·g^−1 or mL
Concentration of the radioactivity, Pancreas [4]: 5.92 ± 0.436 μg equiv·g^−1 or mL
